Laboratory results taken from PMC12578283 (Protein & Cell, 2025).

B1: 1G9 (antibody, V domains shown)
VH: QVQLQQPGPELVRPGASVKLSCKASGYTFTTYWMKWVRQRPGQGLEWIGTIDPSDNEIHYNQIFKDKATLTVDKSSSTAYMHLSSLTSEDAAVYYCARWDGTSYYAMDYWGQGTSVTVSS
VL: DVVMSQTPLSLPVSLGDQASISCRSSQSLVHSNGNTYLHWYLQKPGQSPKLLIYKVSNRFSGVPDRFSGSGSGTDFTLKISRVEAEDLGVYFCSQSTHVPPTFGGGTKLEIK
B2: 4C7 (antibody, V domains shown)
VH: QVQLHQPGSVLVRPGTSVKLSCKASGYTFTSSWMNWAKQRPGQGLEWIGEIHPRSGNTNYNENFKGKATLTVDTSSSTAYVDLSSLASEDSAVYYCARSGGTYYYAMDSWGQGTSVTVSS
VL: DIQMTQTTSSLSASLGDRVTISCRASQDISNYLNWYQQKPDGTVKLLIYYTSRLHSGVPSRFSGSGSGTDFSLTISTLEQEDFATYFCQQANTSPYTFGGGTKLEIN

Target: p15 protein of African swine fever virus (African swine fever virus, UniProt Q65179)

| Binder | binding result |
| --- | --- |
| B1 | binds |
| B2 | binds |
